Source: US20250002610A1 (Genmab, published 2025)

Assays:
[1] = target: T1, human DR4 with death domain deletion on ExpiCHO-S cells (human); assay: flow cytometry, ExpiCHO-S cells expressing human DR4, n = 1
Protocol: (§1) Binding of BisG1-FAPα-FERL/DR4-FERR, BisG1-DR4-FEAL/b12-FEAR and IgG1-DR4-FERR to DR4 of various species commonly used for nonclinical toxicology studies was assessed by flow cytometry using ExpiCHO-S cells transiently expressing DR4 from different animal species. In contrast to other species, rodents only express one DR which has highest homology with human DR5. Therefore, ExpiCHO-S cells transiently expressing rat and mouse DR protein were used instead. All DR constructs lack the intracellular DD to avoid apoptosis of transfected cells upon DR(4) activation. IgG1-b12 was used as negative control.

[2] = target: T1, human DR4 with death domain deletion on …; assay: flow cytometry, ExpiCHO-S cells expressing human DR4, n = 2
Protocol: as §1

[3] = target: T1, human DR4 with death domain deletion on …; assay: flow cytometry, ExpiCHO-S cells expressing human DR4, average ± SEM
[4] = target: T2, cynomolgus monkey DR4 with death domain deletion on ExpiCHO-S cells (cynomolgus monkey (Macaca fascicularis)); assay: flow cytometry on ExpiCHO-S cells transiently expressing cynomolgus monkey DR4 (death domain deleted), gMFI PE
T2 construct: also called cynomolgus DR4
T2 chain: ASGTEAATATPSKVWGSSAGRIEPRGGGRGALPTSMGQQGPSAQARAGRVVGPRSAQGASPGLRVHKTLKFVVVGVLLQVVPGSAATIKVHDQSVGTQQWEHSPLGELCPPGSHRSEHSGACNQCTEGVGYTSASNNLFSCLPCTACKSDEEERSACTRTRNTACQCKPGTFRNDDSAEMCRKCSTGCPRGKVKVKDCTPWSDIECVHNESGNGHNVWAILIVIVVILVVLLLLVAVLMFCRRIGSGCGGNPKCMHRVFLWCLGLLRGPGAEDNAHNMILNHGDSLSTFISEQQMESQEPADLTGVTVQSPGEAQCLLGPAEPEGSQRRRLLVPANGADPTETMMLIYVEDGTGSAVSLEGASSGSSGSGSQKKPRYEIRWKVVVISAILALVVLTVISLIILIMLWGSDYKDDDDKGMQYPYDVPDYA

[5] = target: T3, human FAPα (Fibroblast activation protein alpha), cell surface expressed (human, UniProt Q12884 1-760); assay: flow cytometry, human lung fibroblasts, n = 1
T3 construct: Endogenous on human lung fibroblasts and CAFs
T3 sequence: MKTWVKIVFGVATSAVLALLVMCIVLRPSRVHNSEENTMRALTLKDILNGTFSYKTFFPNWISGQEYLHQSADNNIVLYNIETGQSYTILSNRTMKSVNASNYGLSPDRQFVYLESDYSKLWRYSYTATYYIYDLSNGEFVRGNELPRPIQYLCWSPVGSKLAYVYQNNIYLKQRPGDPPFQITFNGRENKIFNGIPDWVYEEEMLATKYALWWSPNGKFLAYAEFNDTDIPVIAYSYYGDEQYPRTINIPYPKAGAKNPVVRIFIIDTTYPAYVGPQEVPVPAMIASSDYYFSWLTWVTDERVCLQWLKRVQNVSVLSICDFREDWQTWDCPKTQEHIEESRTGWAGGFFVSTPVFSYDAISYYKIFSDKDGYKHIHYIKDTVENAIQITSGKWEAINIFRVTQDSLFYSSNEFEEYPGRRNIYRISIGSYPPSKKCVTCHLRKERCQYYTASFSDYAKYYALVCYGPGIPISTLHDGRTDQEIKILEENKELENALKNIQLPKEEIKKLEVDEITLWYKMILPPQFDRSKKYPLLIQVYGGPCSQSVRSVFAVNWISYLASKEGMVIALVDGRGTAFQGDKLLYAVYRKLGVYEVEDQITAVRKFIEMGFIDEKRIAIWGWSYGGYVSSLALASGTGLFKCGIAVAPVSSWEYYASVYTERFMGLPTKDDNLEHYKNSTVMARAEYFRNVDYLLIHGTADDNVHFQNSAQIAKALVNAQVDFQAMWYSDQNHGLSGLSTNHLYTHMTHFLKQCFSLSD
Protocol: (§2) Human lung fibroblasts and CAFs (50,000 cells/well) were seeded in 96-Well round bottom plates (Greiner Bio-one, Cat #650101). Antibody dilutions were prepared using fluorescence-activated cell sorting (FACS) buffer, consisting of phosphate buffer saline (PBS, Lonza, Cat #BE17-517Q)+1% Bovine Serum Albumin (BSA, Roche, Cat #10735086001)+0.02% Sodium Azide (Bio-World, Cat #41920044-3). Plates were centrifuged, supernatant was removed, cells were resuspended in 50 μL of human Fc Block (BD, Cat #564220, diluted 1:100 in FACS buffer) and 50 μL of viability stain TO-PRO-3 Iodide (Thermo Fisher, Cat #T3605, diluted 1: 25,000 in FACS buffer), and incubated for 15 min at 4° C. Plates were washed three times with FACS buffer. Plates were centrifuged, supernatant was removed, cells were resuspended in 50 μL of antibody dilutions (concentration range 90-0.0005 μg/mL, three-fold dilution steps using FACS buffer) of BisG1-FAPα-FERL/DR4-FERR, BisG1-FAPα-FERL/b12-FERR, BisG1-b12-FERL/b12-FERR (top six concentrations only for CAFs culture) or IgG1-FAPα-FERL (top four concentrations only for CAFs culture) and incubated for 30 min at 4° C. Cells were washed three times with FACS buffer and resuspended in 50 μL of Fluorescein isothiocyanate (FITC)-labeled polyclonal antibody goat anti-mouse IgG1 (Jackson Immuno Research, Cat #109-096-097, diluted 1:100 in FACS buffer). After 30 min incubation at 4° C., cells were washed twice with FACS buffer and resuspended in FACS buffer. Antibody binding to viable cells (TO-PRO-3 negative) was analyzed by flow cytometry on a FACSCelesta™ (BD biosciences) and data were processed using FlowJo_v10.8.1 (FlowJo LLC). Geomean fluorescence intensity, gMFI, was determined and visualized using GraphPad Prism. Binding curves were analyzed using nonlinear regression analysis. The concentration (pg/mL) at which 50% of the maximal effect was observed (EC₅₀) was derived from the fitted curves.
(§3) Binding of FAPα-targeting monoclonal antibody clones, IgG1-FAPα-FEAL and IgG1-FAP5-FEAL, and bispecific antibodies carrying a binding arm derived from the two FAPα-binding clones (BisG1-FAPα-FEAL/b12-FEAR and BisG1-FAP5-FEAL/b12-FEAR) to human lung fibroblasts, which endogenously express FAPα, was compared and analyzed by flow cytometry.

[6] = target: T3, human FAPα (Fibroblast activation …); assay: flow cytometry, human lung fibroblasts, n = 2
Protocol: as §2, with “After 30 min incubation at 4° C., cells were washed twice with FACS buffer and resuspended in FACS buffer.” left out, “The concentration (pg/mL) at which 50% of the maximal effect was observed (EC₅₀) was derived from the fitted curves.” left out
as §3

Binder | EC50 [1] [µg/mL] | EC50 [2] [µg/mL] | EC50 [3] [µg/mL] | EC50 (read off the curve) [4] [µg/mL] | EC50 [5] [µg/mL] | EC50 [6] [µg/mL]
BisG1-DR4-FEAL/b12-FEAR (bispecific antibody, human IgG1, kappa, lambda, Fab-arm exchange of IgG1-DR4-FEAL and IgG1-b12-FEAR) heavy 1: QVQLQESGPGLVKPSGTLSLTCAVSGGSISSYSWWSWIRQPPGKGLEWIGELYHSGSTNYNPSLKSRVTISVDKSKNQFSLKLRSVTAADTAVYYCVRGVATIDYWGQGTLVTVSSASTKGPSVFPLAPSSKSTSGGTAALGCLVKDYFPEPVTVSWNSGALTSGVHTFPAVLQSSGLYSLSSVVTVPSSSLGTQTYICNVNHKPSNTKVDKRVEPKSCDKTHTCPPCPAPEFEGGPSVFLFPPKPKDTLMISRTPEVTCVVVAVSHEDPEVKFNWYVDGVEVHNAKTKPREEQYNSTYRVVSVLTVLHQDWLNGKEYKCKVSNKALPAPIEKTISKAKGQPREPQVYTLPPSREEMTKNQVSLTCLVKGFYPSDIAVEWESNGQPENNYKTTPPVLDSDGSFLLYSKLTVDKSRWQQGNVFSCSVMHEALHNHYTQKSLSLSPG light 1: QSALTQPPSASGSPGQSVTISCTGTSSDVGGYNFVSWYQQDPGKAPKLLIYEVTKRPSGVPDRFSGSKSGNTASLTVSGLQAEDEADYYCSSYAGSNNVMFGGGTKLTVLGQPKAAPSVTLFPPSSEELQANKATLVCLISDFYPGAVTVAWKADSSPVKAGVETTTPSKQSNNKYAASSYLSLTPEQWKSHRSYSCQVTHEGSTVEKTVAPTECS heavy 2: QVQLVQSGAEVKKPGASVKVSCQASGYRFSNFVIHWVRQAPGQRFEWMGWINPYNGNKEFSAKFQDRVTFTADTSANTAYMELRSLRSADTAVYYCARVGPYSWDDSPQDNYYMDVWGKGTTVIVSSASTKGPSVFPLAPSSKSTSGGTAALGCLVKDYFPEPVTVSWNSGALTSGVHTFPAVLQSSGLYSLSSVVTVPSSSLGTQTYICNVNHKPSNTKVDKRVEPKSCDKTHTCPPCPAPEFEGGPSVFLFPPKPKDTLMISRTPEVTCVVVAVSHEDPEVKFNWYVDGVEVHNAKTKPREEQYNSTYRVVSVLTVLHQDWLNGKEYKCKVSNKALPAPIEKTISKAKGQPREPQVYTLPPSREEMTKNQVSLTCLVKGFYPSDIAVEWESNGQPENNYKTTPPVLDSDGSFFLYSRLTVDKSRWQQGNVFSCSVMHEALHNHYTQKSLSLSPG light 2: EIVLTQSPGTLSLSPGERATFSCRSSHSIRSRRVAWYQHKPGQAPRLVIHGVSNRASGISDRFSGSGSGTDFTLTITRVEPEDFALYYCQVYGASSYTFGQGTKLERKRTVAAPSVFIFPPSDEQLKSGTASVVCLLNNFYPREAKVQWKVDNALQSGNSQESVTEQDSKDSTYSLSSTLTLSKADYEKHKVYACEVTHQGLSSPVTKSFNRGEC | 1.02 | 1.23 | 1.12 | ~1 | – | –
IgG1-FAP5-FEAL (antibody, Prior art clone FAP5 (US20090304718A1) with FEAL constant region) heavy: QVQLQQSGAELARPGASVNLSCLASGYTFTNNGINWLKQRTGQGLEWIGEIYPRSTNTLYNEKFKGKATLTADRSSNTAYMELRSLTSEDSAVYFCARTLTAPFAFWGQGTLVTVSSASTKGPSVFPLAPSSKSTSGGTAALGCLVKDYFPEPVTVSWNSGALTSGVHTFPAVLQSSGLYSLSSVVTVPSSSLGTQTYICNVNHKPSNTKVDKRVEPKSCDKTHTCPPCPAPEFEGGPSVFLFPPKPKDTLMISRTPEVTCVVVAVSHEDPEVKFNWYVDGVEVHNAKTKPREEQYNSTYRVVSVLTVLHQDWLNGKEYKCKVSNKALPAPIEKTISKAKGQPREPQVYTLPPSREEMTKNQVSLTCLVKGFYPSDIAVEWESNGQPENNYKTTPPVLDSDGSFLLYSKLTVDKSRWQQGNVFSCSVMHEALHNHYTQKSLSLSPG light: QIVLTQSPAIMSASPGELVTMTCSASSGVNFMHWYQQLSGTSPKRWIFDTSKLASGVPARFSGSGSGTSYSLTISSMEAEDAATYYCQQWSFNPPTFGGGTKLEIKRTVAAPSVFIFPPSDEQLKSGTASVVCLLNNFYPREAKVQWKVDNALQSGNSQESVTEQDSKDSTYSLSSTLTLSKADYEKHKVYACEVTHQGLSSPVTKSFNRGEC | – | – | – | – | 0.15 | 0.2
